Molecular target: SARS-CoV-2 S (Wuhan)-His (1–1273 aa) expressed in HEK293T cells (SARS-CoV-2 Wuhan, UniProt P0DTC2)
Assay: western blot
Settings: one partner purified

B1: anti-S2 monoclonal antibody 4A5 (antibody, V domains shown)
VH: QVKLEQSGPGILQPSQTLSLTCSFSGFSLSTSGMGVSWIRQSSGKGLEWLTHIYWDDDKRYNPSLKSRLTISKDTSRNQVFLKITSVDTADTATYYCARRRMITGLYYAMDYWGQGTSVTVSS
VL: DIVMTQSTLSLPVSFGDQVSISCRSSQSLANSYGITYLSWYLHKPGQSPQLLIYGISNRFSGVPDRFSGSGSGTDFTLKISTIKPEDLGMYYCLQGTHQPWTFGGGTKLEIK
B1: binds.

— PMC10749193 (Frontiers in Immunology, 2023)
